In article PMC6684798, “Structural basis for the target specificity of actin histidine methyltransferase SETD3” (Nature Communications, 2019):

Molecular target: T1, SETD3 WT (Homo sapiens, UniProt Q86TU7)
T1 construct: GST (cleaved yes); made in house; host or cells: Escherichia coli BL21(DE3) CodonPlus
T1 sequence (Q86TU7 1-594): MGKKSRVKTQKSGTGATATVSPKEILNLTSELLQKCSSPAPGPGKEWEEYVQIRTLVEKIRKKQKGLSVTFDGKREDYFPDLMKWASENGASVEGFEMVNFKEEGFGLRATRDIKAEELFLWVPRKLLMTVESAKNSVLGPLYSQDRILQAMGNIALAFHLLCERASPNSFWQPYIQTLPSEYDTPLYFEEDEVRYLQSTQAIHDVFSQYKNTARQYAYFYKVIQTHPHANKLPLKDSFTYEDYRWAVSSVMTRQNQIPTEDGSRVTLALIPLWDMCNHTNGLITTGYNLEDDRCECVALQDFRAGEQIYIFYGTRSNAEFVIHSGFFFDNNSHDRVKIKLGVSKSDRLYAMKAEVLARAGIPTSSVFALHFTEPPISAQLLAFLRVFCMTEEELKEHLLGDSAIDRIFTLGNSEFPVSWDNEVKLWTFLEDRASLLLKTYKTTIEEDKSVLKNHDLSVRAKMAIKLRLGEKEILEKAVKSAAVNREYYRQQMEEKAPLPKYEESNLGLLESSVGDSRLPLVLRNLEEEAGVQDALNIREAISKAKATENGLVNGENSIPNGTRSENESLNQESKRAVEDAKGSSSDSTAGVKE
Experiment: Steady-state kinetics of SETD3 WT on K73 peptides (Fig. 3b, c; pH 10.5, 37 °C, 40 µM SAM)
Format: biochemical
Description: Fig. 3 Kinetics of SETD3 on H73 and K73 peptides. a Comparison of activities of three variants (WT, N255A, and N255V) on H73(66–80) peptide. The assays were performed at room temperature (~22 °C) and pH 8.0 using [WT] = 0.18 μM, [N255A] = 0.18 μM, and [N255V] = 0.72 μM. b Comparison of SETD3 WT activities on two K73 peptides (residues 66–80 and 66–88). The assays were performed at 37 °C and pH 10.5 using [WT] = 3 and 15 μM, respectively, for the long and short peptides. c Comparison of activities of three variants (N255A, N255V, and WT) on K73(66–88) peptide. The assays were performed at 37 °C and pH 10.5 using [N255A] = 90 nM, [N255V] = 0.72 μM and [WT] = 4 μM. Data represent the mean ± SD of N number of independent determinations (N = 3 for the WT and N = 2 for the mutants) performed in duplicate. Source data are provided as a Source Data file. d, e Mass spectrometry analysis of K73(66–88) methylation kinetic showing representative spectra at various time points for N255A variant (panel d) and SETD3 WT enzyme (panel e). The assays were performed at 37 °C and pH 10.5 using 3 μM for both N255A and WT. f In vitro methylation reactions with SETD3, indicated full-length actin proteins, and radiolabeled methyl donor (^3H-SAM). Right, Reactions were resolved by SDS–PAGE and activity was visualized by autoradiography. […] The first column head is 'SETD3', and the substrate peptide is printed only on the plot axis. / Panel b: the first column head is 'SETD3 (WT)', and the rows are K73 peptide substrates.
Recombinant human SETD3 (pXC2003) was expressed as a GST-fusion[22] in Escherichia coli BL21(DE3) CodonPlus^TM cells (Stratagene). The SETD3 mutants at residue 255 (N255A; pXC2093 and N255V; pXC2094) were generated with Q5 Site-Directed Mutagenesis Kit (New England Biolabs), confirmed by sequencing and the same protocol for expression and purification were followed. Briefly, the purification was conducted in a BIO-RAD NGC^TM system using a three-column chromatography of glutathione-sepharose, HiTrap Q-HP and Superdex 200. The GST tag was removed by PreScisson Protease (purified in-house). The purified SETD3 proteins at a concentration ~25–35 mg/ml were kept at −80 °C in storage buffer for future use [20 mM Tris (pH 8.0), 200 mM NaCl, 5% glycerol, and 0.5 mM tris (2-carboxyethyl) phosphine (TCEP)].
A reaction mixture contained 20 mM Tris/HCl (pH 8.0) or 20 mM glycine/NaOH (pH 10.5), 50 mM NaCl, 0.1 mg/ml BSA, 1 mM DTT, 0.18–15 µM SETD3 (as indicated in Fig. 3), 40 µM SAM and varying concentration of peptides. The reactions were carried out at room temperature (~22 °C) or 37 °C for different time (20 min to 3 h) with a total volume of 20 µl, and terminated by the addition of TFA to 0.1% (v/v) for Tris/HCl (pH 8.0) or 0.4% (v/v) for Glycine/NaOH (pH 10.5). Samples terminated with the addition of 0.4% (v/v) TFA were then further diluted 4× with buffer 20 mM Tris/HCl (pH 8.0), 50 mM NaCl, 0.1 mg/ml BSA, 1 mM DTT to reduce the TFA concentration. The dependence of the velocity of product formation per enzyme on substrate concentration was analyzed according to the Michaelis–Menten equation.

[1] = pH 10.5, 37 °C, [WT] = 3 and 15 μM for long and short peptide (Fig. 3b), 4 μM (Fig. 3c)
[2] = pH 10.5, 37 °C, [WT] = 3 and 15 μM for long and short peptide (Fig. 3b), 4 μM (Fig. 3c), mean ± SD

Substance | affinity for the substrate weaker than for H73 substrate (Km, K73(66–80) vs. H73(66–80)) | maximum reaction rate slower than for H73 substrate (kcat, K73(66–80) (pH 10.5, 37 °C) vs. H73(66–80) (pH 8.0, ~22 °C)) | loss in catalytic efficiency (kcat/Km, K73(66–80) vs. H73(66–80)) | kcat/Km [1] | Km [2] | kcat [2] | increase of catalytic efficiency on K73 by lengthened peptide (factor in kcat/Km, long (66–88) vs. short (66–80) peptide) | Km compared with H73(66–80) peptide (pH 10.5, K73(66–88) vs. H73(66–80))
K73(66–80): K73-containing (H73K) actin peptide, residues 66–80 (TLKYPIEKGIVTNWD; UniProt P60709 66-80, looked up, variant H73K) | ~ 20 -fold | ~ 40 -fold | more than 1000 -fold | 0.361 M⁻¹ s⁻¹ | 430 µM | 0.00017 s⁻¹ |  | 
K73(66–88): K73-containing actin H73K peptide, residues 66–88 (TLKYPIEKGIVTNWDDMEKIWHH; UniProt P60709 66-88, looked up, variant H73K) |  |  |  | 36.1 M⁻¹ s⁻¹ | 5.2 µM |  | ~ 100 | about four-fold better
